Data set [1] deals with HeLa Kyoto. The experiment in a line: solubility in G1/S (NP-40 vs SDS abundance) (log2 ratio); higher = more soluble. As to conditions: cell cycle stage: G1/S.
Data set [2] concerns HeLa Kyoto. The experiment in a line: thermal stability score vs G1/S (z-score of summed log2 fold changes over temperatures); higher = more thermally stable than in G1/S.
Data set [3] has as its system HeLa Kyoto. The data set is described as follows: melting temperature (median over replicates), in situ; higher = more thermally stable.
Data set [4] concerns HeLa Kyoto. The experiment in a line: solubility change mitosis vs G1/S (difference of NP-40 vs SDS log2 ratios) (log2 ratio difference); higher = more soluble in mitosis.
Where [5] appears, read: cell cycle stage: early G1 (4.5 h after nocodazole release).
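For melting temperature (median over replicates), in situ in this document: HeLa Kyoto cells synchronized by double thymidine or nocodazole block, proteins quantified by TMT10plex mass spectrometry, three independent biological replicates.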
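For solubility change mitosis vs G1/S (difference of NP-40 vs SDS log2 ratios) in this document: synchronized HeLa Kyoto cells (double thymidine block for G1/S, nocodazole release for mitosis), protein amounts in NP-40 versus SDS lysates quantified by mass spectrometry, three biological replicates.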
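For solubility in G1/S (NP-40 vs SDS abundance) in this document: HeLa Kyoto cells arrested at G1/S by double thymidine block, proteins quantified by TMT10plex mass spectrometry in mild NP-40 versus SDS extracts, three biological replicates.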
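For thermal stability score vs G1/S (z-score of summed log2 fold changes over temperatures) in this document: synchronized HeLa Kyoto cells, proteins quantified by TMT10plex mass spectrometry, three biological replicates, mitosis taken 0.5 h after nocodazole release, G1/S directly after double thymidine block.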

In the case of “MAEKVLVTGGAGYIGSHTVLELLEAGYLPVVIDNFHNAFRGGGSLPESLRRVQELTGRSVEFEEMDILDQGALQRLFKKYSFMAVIHFAGLKAVGESVQKPLDYYRVNLTGTIQLLEIMKAHGVKNLVFSSSATVYGNPQYLPLDEAHPTGGCTNPYGKSKFFIEEMIRDLCQADKTWNAVLLRYFNPTGAHASGCIGEDPQGIPNNLMPYVSQVAIGRREALNVFGNDYDTEDGTGVRDYIHVVDLAKGHIAALRKLKEQCGCRIYNLGTGTGYSVLQMVQAMEKASGKKIPYKVVARREGDVAACYANPSLAQEELGWTAALGLDRMCEDLWRWQKQNPSGFGTQA [GALE]”, in the data set on HeLa Kyoto [1], the “solubility in G1/S (log2)” value was 0.453. The thermal stability score in the data set on HeLa Kyoto [2] (setting [5]) was -3.9; in the data set with HeLa Kyoto [2] (cell cycle stage: mitosis), -0.458. The melting temperature in the data set on HeLa Kyoto [3] (cell cycle stage: G1/S) was 53.3 °C; in the data set with HeLa Kyoto [3] (cell cycle stage: mitosis), 53.8 °C. In addition, the “solubility change mitosis (log2)” value with HeLa Kyoto [4] was -0.146.

In the case of ZNFX1, the “solubility in G1/S (log2)” value in the data set on HeLa Kyoto [1] was -0.239. The results for the thermal stability score with HeLa Kyoto [2] (setting [5]) and with HeLa Kyoto [2] (cell cycle stage: mitosis) were -0.325 and 0.64, respectively. Moreover, the melting temperature was found to be 50.3 °C in the data set with HeLa Kyoto [3] (cell cycle stage: G1/S) and 49.5 °C with HeLa Kyoto [3] (cell cycle stage: mitosis). The “solubility change mitosis (log2)” value with HeLa Kyoto [4] was -0.0887.

For “MSRARSHLRAALFLAAASARGITTQVAARRGLSAWPVPQEPSMEYQDAVRMLNTLQTNAGYLEQVKRQRGDPQTQLEAMELYLARSGLQVEDLDRLNIIHVTGTKGKGSTCAFTECILRSYGLKTGFFSSPHLVQVRERIRINGQPISPELFTKYFWRLYHRLEETKDGSCVSMPPYFRFLTLMAFHVFLQEKVDLAVVEVGIGGAYDCTNIIRKPVVCGVSSLGIDHTSLLGDTVEKIAWQKGGIFKQGVPAFTVLQPEGPLAVLRDRAQQISCPLYLCPMLEALEEGGPPLTLGLEGEHQRSNAALALQLAHCWLQRQDRHGAGEPKASRPGLLWQLPLAPVFQPTSHMRLGLRNTEWPGRTQVLRRGPLTWYLDGAHTASSAQACVRWFRQALQGRERPSGGPEVRVLLFNATGDRDPAALLKLLQPCQFDYAVFCPNLTEVSSTGNADQQNFTVTLDQVLLRCLEHQQHWNHLDEEQASPDLWSAPSPEPGGSASLLLAPHPPHTCSASSLVFSCISHALQWISQGRDPIFQPPSPPKGLLTHPVAHSGASILREAAAIHVLVTGSLHLVGGVLKLLEPALSQ [FPGS]”, the “solubility in G1/S (log2)” value in the data set with HeLa Kyoto [1] was 0.114. In addition, the thermal stability score in the data set with HeLa Kyoto [2] (setting [5]) worked out at 0.537; in the data set with HeLa Kyoto [2] (cell cycle stage: mitosis) it was 1.93. In addition, the melting temperature was determined as 49.7 °C in the data set on HeLa Kyoto [3] (cell cycle stage: G1/S) and 48.1 °C with HeLa Kyoto [3] (cell cycle stage: mitosis). Also, the “solubility change mitosis (log2)” value in the data set on HeLa Kyoto [4] is -0.165.

As to “MATTAAPAGGARNGAGPEWGGFEENIQGGGSAVIDMENMDDTSGSSFEDMGELHQRLREEEVDADAADAAAAEEEDGEFLGMKGFKGQLSRQVADQMWQAGKRQASRAFSLYANIDILRPYFDVEPAQVRSRLLESMIPIKMVNFPQKIAGELYGPLMLVFTLVAILLHGMKTSDTIIREGTLMGTAIGTCFGYWLGVSSFIYFLAYLCNAQITMLQMLALLGYGLFGHCIVLFITYNIHLHALFYLFWLLVGGLSTLRMVAVLVSRTVGPTQRLLLCGTLAALHMLFLLYLHFAYHKVVEGILDTLEGPNIPPIQRVPRDIPAMLPAARLPTTVLNATAKAVAVTLQSH [YIPF3]”, the “solubility in G1/S (log2)” value in the data set with HeLa Kyoto [1] was -0.107. Besides, the thermal stability score in the data set on HeLa Kyoto [2] (setting [5]) was -2.34; in the data set on HeLa Kyoto [2] (cell cycle stage: mitosis), -3.63. Also, the figures for the melting temperature in the data set with HeLa Kyoto [3] (cell cycle stage: G1/S) and in the data set on HeLa Kyoto [3] (cell cycle stage: mitosis) were 55.9 °C and 55.7 °C, respectively. Besides, the “solubility change mitosis (log2)” value in the data set on HeLa Kyoto [4] is -0.0133.

“MSGLRVYSTSVTGSREIKSQQSEVTRILDGKRIQYQLVDISQDNALRDEMRALAGNPKATPPQIVNGDQYCGDYELFVEAVEQNTLQEFLKLA [SH3BGRL3]”: in the data set on HeLa Kyoto [1], the “solubility in G1/S (log2)” value is -0.259. In addition, the thermal stability score in the data set with HeLa Kyoto [2] (setting [5]) was -2.26; in the data set on HeLa Kyoto [2] (cell cycle stage: mitosis), -3.11. For the same substance, the results for the melting temperature with HeLa Kyoto [3] (cell cycle stage: G1/S) and with HeLa Kyoto [3] (cell cycle stage: mitosis) were 54.2 °C and 52.6 °C, respectively. Further, the “solubility change mitosis (log2)” value with HeLa Kyoto [4] was -0.132.

With “MAAPGLRLGAGRLFEMPAVLERLSRYNSTSQAFAEVLRLPKQQLRKLLYPLQEVERFLAPYGRQDLHLRIFDPSPEDIARADNIFTATERNRIDYVSSAVRIDHAPDLPRPEVCFIGRSNVGKSSLIKALFSLAPEVEVRVSKKPGHTKKMNFFKVGKHFTVVDMPGYGFRAPEDFVDMVETYLKERRNLKRTFLLVDSVVGIQKTDNIAIEMCEEFALPYVIVLTKIDKSSKGHLLKQVLQIQKFVNMKTQGCFPQLFPVSAVTFSGIHLLRCFIASVTGSLD [GTPBP8]”, the “solubility in G1/S (log2)” value in the data set on HeLa Kyoto [1] worked out at 0.0451. Also, the figures for the thermal stability score in the data set with HeLa Kyoto [2] (setting [5]) and with HeLa Kyoto [2] (cell cycle stage: mitosis) were -0.696 and 0.105, respectively. The values for the melting temperature in the data set with HeLa Kyoto [3] (cell cycle stage: G1/S) and in the data set with HeLa Kyoto [3] (cell cycle stage: mitosis) were 50.8 °C and 52.8 °C, respectively. The “solubility change mitosis (log2)” value with HeLa Kyoto [4] was -0.0931.

Consider “MSTLYVSPHPDAFPSLRALIAARYGEAGEGPGWGGAHPRICLQPPPTSRTPFPPPRLPALEQGPGGLWVWGATAVAQLLWPAGLGGPGGSRAAVLVQQWVSYADTELIPAACGATLPALGLRSSAQDPQAVLGALGRALSPLEEWLRLHTYLAGEAPTLADLAAVTALLLPFRYVLDPPARRIWNNVTRWFVTCVRQPEFRAVLGEVVLYSGARPLSHQPGPEAPALPKTAAQLKKEAKKREKLEKFQQKQKIQQQQPPPGEKKPKPEKREKRDPGVITYDLPTPPGEKKDVSGPMPDSYSPRYVEAAWYPWWEQQGFFKPEYGRPNVSAANPRGVFMMCIPPPNVTGSLHLGHALTNAIQDSLTRWHRMRGETTLWNPGCDHAGIATQVVVEKKLWREQGLSRHQLGREAFLQEVWKWKEEKGDRIYHQLKKLGSSLDWDRACFTMDPKLSAAVTEAFVRLHEEGIIYRSTRLVNWSCTLNSAISDIEVDKKELTGRTLLSVPGYKEKVEFGVLVSFAYKVQGSDSDEEVVVATTRIETMLGDVAVAVHPKDTRYQHLKGKNVIHPFLSRSLPIVFDEFVDMDFGTGAVKITPAHDQNDYEVGQRHGLEAISIMDSRGALINVPPPFLGLPRFEARKAVLVALKERGLFRGIEDNPMVVPLCNRSKDVVEPLLRPQWYVRCGEMAQAASAAVTRGDLRILPEAHQRTWHAWMDNIREWCISRQLWWGHRIPAYFVTVSDPAVPPGEDPDGRYWVSGRNEAEAREKAAKEFGVSPDKISLQQDEDVLDTWFSSGLFPLSILGWPNQSEDLSVFYPGTLLETGHDILFFWVARMVMLGLKLTGRLPFREVYLHAIVRDAHGRKMSKSLGNVIDPLDVIYGISLQGLHNQLLNSNLDPSEVEKAKEGQKADFPAGIPECGTDALRFGLCAYMSQGRDINLDVNRILGYRHFCNKLWNATKFALRGLGKGFVPSPTSQPGGHESLVDRWIRSRLTEAVRLSNQGFQAYDFPAVTTAQYSFWLYELCDVYLECLKPVLNGVDQVAAECARQTLYTCLDVGLRLLSPFMPFVTEELFQRLPRRMPQAPPSLCVTPYPEPSECSWKDPEAEAALELALSITRAVRSLRADYNLTRIRPDCFLEVADEATGALASAVSGYVQALASAGVVAVLALGAPAPQGCAVALASDRCSIHLQLQGLVDPARELGKLQAKRVEAQRQAQRLRERRAASGYPVKVPLEVQEADEAKLQQTEAELRKVDEAIALFQKML [VARS]”, for which the “solubility in G1/S (log2)” value in the data set with HeLa Kyoto [1] was -0.0962. Also, the values for the thermal stability score with HeLa Kyoto [2] (setting [5]) and in the data set on HeLa Kyoto [2] (cell cycle stage: mitosis) were -0.359 and -0.482, respectively. Moreover, the melting temperature in the data set with HeLa Kyoto [3] (cell cycle stage: G1/S) was 51 °C; in the data set with HeLa Kyoto [3] (cell cycle stage: mitosis) it was 50.5 °C. Further, the “solubility change mitosis (log2)” value in the data set on HeLa Kyoto [4] is -0.183.
